± gives the standard deviation of the averaged measurements.
test system: ATP; experiment: switch fluorescence ratio, 500 uM ATP over buffer (Cy3 cluster intensity, sum of 5 cycles each) (fold (ratio)); higher = stronger signal-on switching upon ATP binding; sequences stand for … in TCGTCGGCAGCGTCAGATGTGTATAAGAGACAGTTTTTTTTTTTTTTTTTTTTTTTTT…TC; details: aptamer strand: ATP DNA aptamer (quencher-CACCTGGGGGAGTATTGCGGAGGAAGG + anchor), 100 nM annealed; ATP concentration: 500 uM
How it was run: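 After annealing to 100 nM quencher-labelled ATP aptamer, Cy3-labelled switching-strand clusters on a modified Illumina MiSeq flow-cell were imaged in selection buffer. A second image followed after 15 min with 500 uM ATP at 22 °C, and five such buffer/ATP cycles were done, each separated by NaOH stripping and re-annealing. The fluorescence ratio, averaged per switch-domain sequence, is summed target-cycle over summed buffer-cycle Cy3 intensity per cluster, with clusters outside 100-1000 RFU excluded.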
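Also: ATP exposure 15 min at 22 °C before imaging.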

In order of rising switch fluorescence ratio:
1. TTGGGAGTAC  0.942 ± 0.059
2. TTGGGGTCGA  0.951 ± 0.04
3. TTGGAATGTT  0.952 ± 0.043
4. TTGCGTGGTG  0.959 ± 0.077
5. TTGAGTGTGT  0.9604 ± 0.0023
6. TTGGAAAAT  0.967 ± 0.013
7. TTGACAGGCA  0.968 ± 0.012
8. TTGGCTTCAT  0.968 ± 0.016
9. TTCTGAAACA  0.969 ± 0.036
10. TTCTTGGAAT  0.969 ± 0.049
11. TTGATTAGTA  0.97 ± 0.028
12. TTGCCTTTCG  0.97 ± 0.041
13. TTGGGGTAAG  0.971 ± 0.03
14. TTGGAGGTTA  0.973 ± 0.017
15. TTGCTCTGGG  0.974 ± 0.019
16. TTGGAGAGAA  0.974 ± 0.022
17. TTGGGTTAAC  0.9737 ± 0.006
18. TTGATAAGTT  0.9751 ± 0.0069
19. TTCTTTGGCT  0.977 ± 0.018
20. TTCTTTTTAG  0.9793 ± 0.0051
21. TTGAATTTGG  0.9794 ± 0.0085
22. TTGGGATTCT  0.979 ± 0.019
23. TTGAGAGGAG  0.98 ± 0.02
24. TTGCGCGCTA  0.98 ± 0.054
25. TTGGGCAGTT  0.98 ± 0.051
26. TTCTGTGTGG  0.981 ± 0.011
27. TTGGCTTTAT  0.982 ± 0.04
28. TTGCTACTGT  0.983 ± 0.018
29. TTGGGCCACG  0.983 ± 0.011
30. TTCTTGTCGG  0.984 ± 0.027
31. TTGAATTCGG  0.9841 ± 0.0039
32. TTGGATGGAA  0.984 ± 0.023
33. TTGGGGAGGC  0.9835 ± 0.0015
34. TTGAAACAGA  0.985 ± 0.038
35. TTGCAGATTT  0.985 ± 0.028
36. TTGCTTAAAA  0.9852 ± 0.0095
37. TTGGCTACAA  0.985 ± 0.037
38. TTGGGAAATG  0.985 ± 0.042
39. TTGGGATCCG  0.985 ± 0.016
40. TTGGGGAA  0.985 ± 0.025
41. TTGGGGAAG  0.9853 ± 0.0061
42. TTCTTAGGGA  0.9863 ± 0.0054
43. TTCTTTACGG  0.986 ± 0.026
44. TTGAGATTAT  0.986 ± 0.015
45. TTGCGGTATG  0.986 ± 0.022
46. TTGGGTAGAA  0.986 ± 0.045
47. TTGGCGGGGA  0.987 ± 0.054
48. TTGGGGAACC  0.9866 ± 0.009
49. TTGGGGGTAA  0.987 ± 0.018
50. TTGCTCTGTT  0.988 ± 0.023
51. TTGGGCCCGG  0.9878 ± 0.0073
52. TTGGGCGAAT  0.988 ± 0.021
53. TTGGGGAGTG  0.988 ± 0.017
54. TTGATCAGGG  0.989 ± 0.042
55. TTGCCATTGG  0.9905 ± 0.0062
56. TTGGGCGCAT  0.99 ± 0.025
57. TTGCGTTTTG  0.991 ± 0.057
58. TTGATTGATT  0.9916 ± 0.0055
59. TTGCATGGGA  0.992 ± 0.018
60. TTGATTAATT  0.9925 ± 0.0099
61. TTCTGGAAAT  0.994 ± 0.016
62. TTGGGCTAAT  0.994 ± 0.029
63. TTGGGGCAGC  0.995 ± 0.013
64. TTCTCGTTCT  0.996 ± 0.045
65. TTGAAAGGGG  0.996 ± 0.083
66. TTGCTCCTGT  0.9965 ± 0.0019
67. TTGAAGGCTT  0.997 ± 0.013
68. TTGACGGGAG  0.997 ± 0.027
69. TTGATCCAGT  0.997 ± 0.031
70. TTGGGCCCCT  0.9967 ± 0.0024
71. TTGGGGATTT  0.997 ± 0.029
72. TTGGGGCAGT  0.997 ± 0.035
73. TTGGGGGGA  0.997 ± 0.048
74. TTGAGATTGG  0.998 ± 0.03
75. TTGAGCACGG  0.998 ± 0.019
76. TTGAGGGCTT  0.998 ± 0.025
77. TTGATAAAAA  0.998 ± 0.083
78. TTGGATTTAG  0.998 ± 0.0044
79. TTGGGGTTTC  0.998 ± 0.033
80. TTCTTTATGT  0.999 ± 0.021
81. TTGATTCATG  0.999 ± 0.04
82. TTGGAATAGA  0.999 ± 0.05
83. TTGGAGGGAG  0.999 ± 0.043
84. TTGGAGTGTT  0.999 ± 0.026
85. TTCTTGGGAT  1 ± 0.019
86. TTGAAAGTTC  1 ± 0.077
87. TTGAATAAGA  1 ± 0.071
88. TTGACATGGG  1 ± 0.029
89. TTGAGGGGAT  1.004 ± 0.0059
90. TTGAGGGTCC  1.004 ± 0.0056
91. TTGATAATCT  1 ± 0.026
92. TTGATTGACA  1 ± 0.043
93. TTGATTTAAT  1 ± 0.028
94. TTGCTGTTTG  1 ± 0.034
95. TTGCTTTGTT  1.0015 ± 0.001
96. TTGGAAGGGA  1 ± 0.015
97. TTGGAATTTA  1 ± 0.016
98. TTGGGAAGGG  1 ± 0.032
99. TTGGGACAGC  1.003 ± 0.0014
100. TTGGGCATCT  1.003 ± 0.0031
101. TTGGGGACGG  1 ± 0.038
102. TTGGGGGAAA  1 ± 0.02
103. TTGGGGGGTC  1 ± 0.034
104. TTGGGGGTGA  1 ± 0.042
105. TTGGGGGTTG  1 ± 0.044
106. TTGGGGTGTT  1 ± 0.031
107. TTCTGCGTAT  1.01 ± 0.036
108. TTCTTTTACT  1.01 ± 0.023
109. TTGAAGGAGA  1.01 ± 0.021
110. TTGAAGTAGC  1.01 ± 0.044
111. TTGAATCAAG  1.01 ± 0.041
112. TTGAATCCAT  1.01 ± 0.019
113. TTGACGTTGC  1.01 ± 0.033
114. TTGAGAATCC  1.007 ± 0.0087
115. TTGAGAGATT  1.011 ± 0.0091
116. TTGAGGCCTT  1.01 ± 0.022
117. TTGAGTTTTA  1.01 ± 0.021
118. TTGATCTCGG  1.014 ± 0.0061
119. TTGATCTCTT  1.01 ± 0.026
120. TTGATTTCAG  1.01 ± 0.013
121. TTGCGTTTGA  1.008 ± 0.005
122. TTGCTTTGGG  1.01 ± 0.018
123. TTGGAGGGGG  1.01 ± 0.039
124. TTGGAGGGTG  1.005 ± 0.01
125. TTGGAGTTTT  1.01 ± 0.038
126. TTGGATGTTG  1.01 ± 0.034
127. TTGGCACAGT  1.008 ± 0.0048
128. TTGGCGGGTT  1.008 ± 0.0062
129. TTGGGATAGG  1.01 ± 0.029
130. TTGGGGATGA  1.01 ± 0.016
131. TTGGGGCGGG  1.01 ± 0.039
132. TTGGGGGCGC  1.01 ± 0.031
133. TTGGGGTGCC  1.01 ± 0.018
134. TTGGGTGAGT  1.01 ± 0.014
135. TTCTGTACGG  1.02 ± 0.014
136. TTCTGTTATC  1.023 ± 0.0087
137. TTCTTAGATG  1.016 ± 0.0088
138. TTGAATTTTC  1.02 ± 0.061
139. TTGCCACTGA  1.02 ± 0.013
140. TTGCCGTGTA  1.02 ± 0.031
141. TTGCTTACAT  1.02 ± 0.021
142. TTGGAGACGG  1.023 ± 0.0012
143. TTGGCAGGCC  1.017 ± 0.0074
144. TTGGCTGTGC  1.02 ± 0.019
145. TTGGGAAGTT  1.02 ± 0.031
146. TTGGGATGGT  1.02 ± 0.029
147. TTGGGGAGGG  1.02 ± 0.05
148. TTGGGGGTTT  1.02 ± 0.036
149. TTGGGTCAGG  1.02 ± 0.028
150. TTCTTTGGAT  1.03 ± 0.028
151. TTGAAAAATG  1.03 ± 0.028
152. TTGAATTAAC  1.03 ± 0.06
153. TTGAGGCAGG  1.027 ± 0.0065
154. TTGAGGTACG  1.03 ± 0.082
155. TTGAGTTAC  1.03 ± 0.06
156. TTGGAAGGAC  1.03 ± 0.013
157. TTGGATGAAA  1.03 ± 0.076
158. TTGGGAATCC  1.03 ± 0.12
159. TTGGGGGCA  1.03 ± 0.045
160. TTGGGGGCGT  1.03 ± 0.058
161. TTGGGGTAAA  1.03 ± 0.044
162. TTGGGTGGCA  1.03 ± 0.039
163. TTCTGAGAAT  1.042 ± 0.0044
164. TTGAAGAAAC  1.04 ± 0.018
165. TTGATGCGGT  1.04 ± 0.042
166. TTGCTAAAGC  1.038 ± 0.0054
167. TTGGATTTTC  1.04 ± 0.032
168. TTCTGTTTTA  1.05 ± 0.021
169. TTCTTAGCCG  1.0545 ± 0.00031
170. TTGGGATTAA  1.05 ± 0.053
171. TTGGGCCATG  1.05 ± 0.027
172. TTCTGTAGCG  1.06 ± 0.13
173. TTGCTGGAAT  1.06 ± 0.095
174. TTGGACATGC  1.06 ± 0.14
175. TTGAGGTTA  1.07 ± 0.069
176. TTGCGCTATT  1.07 ± 0.018
177. TTCTTCGACA  1.08 ± 0.034
178. TTGAGCAGCT  1.08 ± 0.085
179. TTGAAATAAT  1.1 ± 0.14
180. TTGCTTCCGT  1.1 ± 0.084
181. TTCTCGGCCC  1.11 ± 0.019
182. TTGGGACTGG  1.12 ± 0.14
183. TTGGGAGGAT  1.12 ± 0.2
184. TTGGGCGTTC  1.12 ± 0.15
185. TTGGGCGGTT  1.13 ± 0.25
186. TTGCGCCGC  1.138 ± 0.0037
187. TTGCGGGGTT  1.14 ± 0.15
188. TTGGATGTAC  1.14 ± 0.15
189. TTCTTTAGGG  1.16 ± 0.26
190. TTGAGGCCCA  1.17 ± 0.22
191. TTGACAGCGA  1.22 ± 0.061
192. TTGATACAGG  1.29 ± 0.37
193. TTGGGGGGCA  1.32 ± 0.65
194. TTGAAGCAAA  1.44 ± 0.37
195. TTGACGTAAA  1.61 ± 0.56
196. TTCTGCTATC  1.79 ± 0.12
197. TTGCAAATTT  1.79 ± 1.4
198. TTGCAGTAAT  1.87 ± 1.1
199. TTCTGGCAAT  2.97 ± 0.14
200. TTGCAATTCG  3.05 ± 2.5
